According to paper PMC4234509:

Key:
[1] = target: EvpP (E. tarda virulent protein P), wild type, 6x His-tagged (Edwardsiella tarda PPD130/91); experiment: dynamic light scattering; 50 µM protein, 20°C, DynaPro; 11 readings
[2] = target: EvpP (E. tarda virulent protein P), wild type, 6x His-tagged (Edwardsiella tarda PPD130/91); experiment: cross-linking; glutaraldehyde, room temperature, different time periods, SDS-PAGE
[3] = target: EvpP (E. tarda virulent protein P), wild type, 6x His-tagged (Edwardsiella tarda PPD130/91); experiment: SEC; Superdex 75 HiLoad 16/60; EvpP eluted at ~72 ml, standards ovalbumin (44 kDa) at 63 ml and myoglobulin (17 kDa) at 83 ml
[4] = target: trypsin-digested EvpP (associated 10-kDa and 4-kDa fragments) (Edwardsiella tarda PPD130/91); experiment: SEC; EvpP after limited trypsin digestion (protein:trypsin 100:1), HiLoad 16/60 Superdex 75

Substance	stoichiometry N [1]	stoichiometry N [2]	stoichiometry N [3]	stoichiometry N [4]
EvpP (E. tarda virulent protein P), wild type, 6x His-tagged (natural protein)	2	2	2	–
trypsin-digested EvpP (associated 10-kDa and 4-kDa fragments) (complex)	–	–	–	2
